The source of these data is PMC9462479 (2022).

B1: myc-tagged human ARMC5 (pcDNA3.1-myc-hARMC5), wild type [human] / FLAG-SREBF1(N), N-terminus of mouse SREBF1, from pcDNA3.1-FLAG-Srebf1(N) in HEK293T [mouse] (parent complex)
chain 1: MAAAKPTLTDSLSFCLAQLAAAAGEALGGEKDPATNETPLSRALLALRTRHIKAAGGIERFRARGGLRPLLALLRRAAAAGSAPSQAGPGSAPSSAASGASSPAPASGPAPSAVSSSSPTPPVRLRKTLDLALSILADCCTEGACRTEVRRLGGILPLVTILQCMKTDSIQNRTARALGNLAMEPESCGDIHCAGAVPLLVESLTACQDSQCLQSVVRALRNLADSPQHRLALAQQGAVRPLAELLATAPDAALTLALVRALLELSRGCSRACAEQLSLGGGLGPLVSLASHPKRAVREGTILILANLCAQGLIRPALGNAGGVEVLVDELRQRRDPNGASPTSQQPLVRAVCLLCREAINRARLRDAGGLDLLMGLLRDPRASAWHPRIVAALVGFLYDTGALGRLQALGLVPLLAGQLCGEAGEEEEEGREAASWDFPEERTPERAQGGSFRSLRSWLISEGYATGPDDISPDWSPEQCPPEPMEPASPAPTPTSLRAPRTQRTPGRSPAAAIEEPWGREGPALLLLSRFSQAPDPSGALVTGPALYGLLTYVTGAPGPPSPRALRILSRLTCNPACLEAFVRSYGAALLRAWLVLGVAPDDWPAPRARPTLHSRHRELGERLLQNLTVQAESPFGVGALTHLLLSGSPEDRVACALTLPFICRKPSLWRRLLLEQGGLRLLLAALTRPAPHPLFLFFAADSLSCLQDLVSPTVSPAVPQAVPMDLDSPSPCLYEPLLGPAPVPAPDLHFLLDSGLQLPAQRAASATASPFFRALLSGSFAEAQMDLVPLRGLSPGAAWPVLHHLHGCRGCGAALGPVPPPGQPLLGSEAEEALEAAGRFLLPGLEEELEEAVGRIHLGPQGGPESVGEVFRLGRPRLAAHCARWTLGSEQCPRKRGLALVGLVEAAGEEAGPLTEALLAVVMGIELGARVPA
chain 2: DELAFGEAALEQTLAEMCELDTAVLNDIEDMLQLINNQDSDFPGLFDAPYAGGETGDTGPSSPGANSPESFSSASLASSLEAFLGGPKVTPAPLSPPPSAPAALKMYPSVSPFSPGPGIKEEPVPLTILQPAAPQPSPGTLLPPSFPAPPVQLSPAPVLGYSSLPSGFSGTLPGNTQQPPSSLPLAPAPGVLPTPALHTQVQSLASQQPLPASAAPRTNTVTSQVQQVPVVLQPHFIKADSLLLTAVKTDAGATVKTAGISTLAPGTAVQAGPLQTLVSGGTILATVPLVVDTDKLPIHRLAAGSKALGSAQSRGEKRTAHNAIEKRYRSSINDKIVELKDLVVGTEAKLNKSAVLRKAIDYIRFLQHSNQKLKQENLTLRSAHKSKSLKDLVSACGSGGGTDVSMEGMKPEVVETLTPPPSDAGSPSQSSPLSFGSRASSSGGSDSEPDSP

The variants in the assay derive from B1. Briefly: co-immunoprecipitation (anti-FLAG IP) with western blot densitometry; HEK293T cells; n = 3; read off a plot. (A western blot detects proteins with antibodies after separation by electrophoresis.)
As for chain 1 R898W, the response is around 0.3 A.U.

With chain 1 L331P, the response was around 0.12 A.U.

On to chain 1 L754P, for which the response is around 0.31 A.U.

Take chain 1 R315W: the response was around 0.12 A.U.

Take chain 1 R362L: the response is around 0.075 A.U.
